In doi:10.1101/2021.01.21.427698:

Molecular target: T1, human SEPT2 with a TEV-cleavable N-terminal His6-tag (human), Q15019
T1 chain: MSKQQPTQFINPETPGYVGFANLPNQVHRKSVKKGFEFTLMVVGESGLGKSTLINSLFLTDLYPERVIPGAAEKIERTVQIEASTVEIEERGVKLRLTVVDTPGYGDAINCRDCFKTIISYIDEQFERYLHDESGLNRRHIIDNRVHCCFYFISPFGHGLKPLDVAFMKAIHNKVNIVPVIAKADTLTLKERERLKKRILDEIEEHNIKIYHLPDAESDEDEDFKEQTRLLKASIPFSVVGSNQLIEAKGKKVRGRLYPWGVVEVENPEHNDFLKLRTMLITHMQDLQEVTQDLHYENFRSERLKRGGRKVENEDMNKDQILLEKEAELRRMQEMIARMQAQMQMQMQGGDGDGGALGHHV
Conditions: remark: other sources report otherwise

B1: full-length human SEPT7 (untagged, as in the octamers), Q16181 1-437 (natural protein)
chain: MSVSARSAAAEERSVNSSTMVAQQKNLEGYVGFANLPNQVYRKSVKRGFEFTLMVVGESGLGKSTLINSLFLTDLYSPEYPGPSHRIKKTVQVEQSKVLIKEGGVQLLLTIVDTPGFGDAVDNSNCWQPVIDYIDSKFEDYLNAESRVNRRQMPDNRVQCCLYFIAPSGHGLKPLDIEFMKRLHEKVNIIPLIAKADTLTPEECQQFKKQIMKEIQEHKIKIYEFPETDDEEENKLVKKIKDRLPLAVVGSNTIIEVNGKRVRGRQYPWGVAEVENGEHCDFTILRNMLIRTHMQDLKDVTNNVHYENYRSRKLAAVTYNGVDNNKNKGQLTKSPLAQMEEERREHVAKMKKMEMEMEQVFEMKVKEKVQKLKDSEAELQRRHEQMKKNLEAQHKELEEKRRQFEDEKANWEAQQRILEQQNSSRTLEKNKKKGKIF
  stoichiometry N: 1
